# Experimental data from patent publication US20240392013A1, “IL1RAP ANTIBODIES AND USES THEREOF” (STELEXIS THERAPEUTICS, LLC, priority 2021, published 2024).
# Residue numbers refer to the chain shown, from its start.
# T1: hIL1RAP (Homo sapiens, UniProt Q9NPH3)
# T1 sequence (Q9NPH3 21-367 limits assumed): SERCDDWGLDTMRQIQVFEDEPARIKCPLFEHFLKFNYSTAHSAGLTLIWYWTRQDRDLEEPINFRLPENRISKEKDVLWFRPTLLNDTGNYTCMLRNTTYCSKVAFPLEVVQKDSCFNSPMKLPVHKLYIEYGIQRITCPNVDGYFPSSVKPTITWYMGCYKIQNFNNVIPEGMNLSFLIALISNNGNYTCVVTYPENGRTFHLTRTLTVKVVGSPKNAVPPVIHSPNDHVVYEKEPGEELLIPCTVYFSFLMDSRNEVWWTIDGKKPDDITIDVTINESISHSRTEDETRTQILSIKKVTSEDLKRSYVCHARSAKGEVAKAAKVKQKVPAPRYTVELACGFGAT
# B1: 74804_27I24A: anti-IL1RAP mAb; VH SEQ ID NO:13, VL SEQ ID NO:29, λ light chain (antibody, V domains shown)
# VH: EVQLVESGGGLVKPGGSLRLSCAASGFTFITYSMNWVRQAPGKGLEWVSSISSISSYIYYADSVKGRFTISRDNAKNSLYLQMDSLRAEDSAVYYCAREGIVGPTGYFDSWGQGTLVTVSS
# VL: QSVLTQPPSVSAAPGQKVTISCSGSSSNIGNHYVSWYQQLPGTAPKLLIYDNNKRPSGIPDRFSGSKSGTSATLGITGLQTGDEADYYCGTWDSRLSAYWVFGGGTKLTVL
# modifications: 74804_27I24A VH; 74804_27I24A VL
# B2: 74804_18L05A: anti-IL1RAP mAb; VH SEQ ID NO:4, VL SEQ ID NO:21, κ light chain (antibody, V domains shown)
# VH: QVQLVQSGAEVKKPGASVKVSCKTSGYTFTSCCMHWVRQAPGQGLEWMGIINPSVGSTSYAQKFQGIVTMTRDTSTSTVYMELSSLRSEDTAVYYCAVDSSGSRYYYGMDVWGQGTTVTVSS
# VL: EIVMTQSPATLSVSPGERATLSCRASQSVRSNLAWYQQRPGQAPRLLIYGTSTRATGIPARFSGSGSGTEFTLTISSLQSEDFAVYYCQQYNYWPYTFGQGTKLEIK
# modifications: 74804_18L05A VH; 74804_18L05A VL
# B3: 74804_05B24A: anti-IL1RAP mAb; VH SEQ ID NO:10, VL SEQ ID NO:26, κ light chain (antibody, V domains shown)
# VH: EVQLVDSGGGLVKPGGSLRLSCAATGFTFSNVWMSWVRQGSGKGLEWVGRIKSKTDGGTIDYAAPVKGRFTISRDDPKNTLYLQMNSLKTEDTAVYYCTTGELLGFDYWGQGTLVTVSS
# VL: DIVMTQSPLSLPVTPGEPASISCRSGQSLLHNNGFNCLAWYLQKPGQSPQLLIYLGSNRASGVPDRFSGSGSGTDFTLKISRVEAEDVGVFYCMQTLQTPITFGQGTRLEIK
# modifications: 74804_05B24A VH; 74804_05B24A VL
# B4: 74804_25H09A: anti-IL1RAP mAb; VH SEQ ID NO:9, VL SEQ ID NO:25, κ light chain (antibody, V domains shown)
# VH: QVQLVQSGAEVKKPGSSVKVSCKASGDTFSNYAITWVRQAPGQGLEWIVGFSPIFGTANYAQKFQGRVTITADKSTSTAYMELSSLISEDTAVYYCAWGSGNFNWFDPWGQGTLVTVSS
# VL: AIRMTQSPSSFSASTGDRVTITCRASQGISSYLAWYQQKPGKAPKLLIYAASTLQSGVPSRFSGSGSGTDFTLTISSLQSEDFATYYCQQYYSYPLTFGGGTKVEIK
# modifications: 74804_25H09A VH; 74804_25H09A VL
# B5: 74804_07K10A: anti-IL1RAP mAb; VH SEQ ID NO:5, VL SEQ ID NO:22, κ light chain (antibody, V domains shown)
# VH: QVQLLQSGAEVKKPGSSVKVSCRASGGTFSIYAIDWVRQAPGQGLEWMGGIIPISGTENSAQNFQDRITITADKSTNTAYMELSSLRSEDTAVYYCARNGATSDAFDIWGQGTMVTVSS
# VL: EIVLTQSPGTLSLSPGERATLSCRASLSVSSNYLAWFQQRPGQAPRLLIYGVSRRATGIPDRFSGSGSGTDFTLTISRLEPEDFAVYYCQQYGSSPLTFGGGTKVEIK
# modifications: 74804_07K10A VH; 74804_07K10A VL, 74804_29D13A VL and 74804_43F04A VL
# B6: 74804_51C10A: anti-IL1RAP mAb; VH SEQ ID NO:8, VL SEQ ID NO:24, κ light chain (antibody, V domains shown)
# VH: B5 VH with R23K, S30N, S55F, E58A, N63K, D66G, I68V
# VL: B5 VL with L27Q
# modifications: 74804_51C10A VH; 74804_51C10A VL
# B7: 74804_29D13A: anti-IL1RAP mAb; VH SEQ ID NO:6, VL SEQ ID NO:22, κ light chain (antibody, V domains shown)
# VH: B5 VH with R23K, S55F, E58A, N63K, D66G, I68V, N77S, I108M
# VL: B5 VL
# modifications: 74804_12A21B VH and 74804_29D13A VH; 74804_07K10A VL, 74804_29D13A VL and 74804_43F04A VL
# Columns and labels:
# [1] = test system: cyIL1RAP; assay: Kinetics of IL1RAP mAbs by Octet, cynomolgus IL1RAP; assay type: binding
# Experimental: (§1) Antibodies were diluted in kinetics buffer (0.1% BSA, 0.02% Tween-20 and 0.05% NaN3 in PBS) and loaded onto 16 channel anti-mouse IgG Fc capture sensors (AMC, Cat #2001073; Sartorius, Göttingen, Germany). Human, huIL1RAP-His (Sino Biological, lot: MB08MA1301), and monkey, cyIL1RAP-His (Lake Pharma, NY, USA; lot:16205819371) proteins were titrated starting from the highest concentration of 100 nM and followed by 50 nM and 25 nM. Purified antibodies were loaded at 5 μg/ml in kinetics buffer. The experimental parameters selected to determine the kinetic constants were Baseline for 60 s, Loading of antibody to sensor for 180 s, Association of analyte to antibody for 120 s, Dissociation for 1200 s and Regeneration in 10 mM Glycine pH 1.7 for 4×30 s.
# (§2) Regeneration cycle tracking was selected for 12 cycles. Binding to human and cynomolgus IL1RAP was measured and KD (M) kinetics were calculated. Also, the disassociation rate (Kdis) (1/s) and association rate (Kon) (1/Ms) kinetics were calculated (data not shown).
# [2] = test system: IL33-induced NFκB activity; assay: HEK-BlueIL33 NFκB Reporter Assay; assay type: cell-based, human; details: nM range, read-out: IC50, inhibition of IL33-induced NFκB activity
# Text: HEK-Blue IL33 (Invivogen, Cat #hkb-hil33) cell line was used to monitor NFκB activity upon stimulation with IL33 cytokine. The secreted embryonic alkaline phosphatase reporter gene (SEAP) is inducible expressed under the control of IFN-β minimal promoter fused to NFκB/AP-1. HEK-BlueIL33 cells were also generated upon stable transfection with human IL1RL1 (ST2) gene. Specificity to IL33 cytokine was achieved by blockage of TNF-α and IL1 response. Cells are maintained in the presence of hygromycin (200 μg/ml), zeocin (100 μg/ml) and blasticidin (10 μg/ml).
# (§3) For the functional assay, cells were plated at a density of 5×10^4 cells/well in 96-well plates. Cells were treated with each antibody at the highest concentration of 200 μg/ml followed by seven serial 1:3 dilutions and incubated for 45 minutes at 37° C./5% CO^2 in humified incubator. Cells were then stimulated with IL33 (12 μM) and incubated overnight at 37° C./5% CO2 in humified incubator. Every treatment was conducted in triplicates. Following, supernatants from each well were mixed with Quanti-Blue substrate (Invivogen, Cat #rep-qb1) according to manufacturer's recommendations and secreted SEAP was measured using spectrophotometer at 650 nm.
# [3] = target: T1, hIL1RAP; assay: Kinetics of IL1RAP mAbs by Octet, human IL1RAP; assay type: binding; set-up: extracellular domain His-tagged, Cat #10121-H08H; His; purchased Sino Biological lot MB08MA1301 (catalogue number not given)
# Experimental: as §1, §2
# [4] = test system: patient-derived AML samples; assay: Cell viability of patient-derived AML samples, CellTiter-Glo; assay type: cell-based, human; details: 15 patient-derived AML samples; 0.1-100 nM, 6 days
# Experimental: Primary patient-derived AML cells collected using leukapheresis or peripheral blood draw were selected based on expression levels of IL1RAP, IL1R1 and IL1RL1. On study day 0, cell viability was calculated, and cells were seeded at a density of 20,000 viable cells/well in 96-well plates. Cells were treated on Day 0 with IL1RAP monoclonal antibodies at a concentration of 100 nM followed by 5-fold serial dilutions. Cytarabine treatment (5 μM) was used as a positive control. Plates were kept at 37° C./5% CO2 in humified incubator and media was not changed during the duration of the assay. On Day 6, plates were removed from incubator and equilibrated to room temperature for up to 30 minutes. Then CellTiter-Glo was added to wells (100 μl) and plates were mixed for 2 minutes on plate rocker, followed by 10 minutes incubation at room temperature. Luminescent signal was recorded using Tecan plate reader and IC50s were calculated.
# [5] = test system: IL1-induced NFκB activity; assay: HEK-BlueIL1β NFκB Reporter Assay; assay type: cell-based; details: nM range, read-out: IC50, inhibition of IL1-induced NFκB activity
# Experimental: The HEK-Blue IL1β (Invivogen, Cat #hkb-il1b) cell line was used to monitor NFκB activity upon stimulation with IL1β cytokine. In this cell line the secreted embryonic alkaline phosphatase reporter gene (SEAP) is inducibly expressed under the control of IFN-β minimal promoter fused to NFκB/AP-1. Specificity to IL1β cytokine was achieved by blockage of TNF-α response. The cells were maintained in the presence of hygromycin (200 μg/ml) and zeocin (100 μg/ml).
# as §3, with “CO2” for “CO^2”, “IL1β” for “IL33”, “(Invivogen, CA USA;” for “(Invivogen,”
Molecule,cyIL1RAP kdis(1/s) [1],cyIL1RAP kon(1/Ms) [1],IC50 [2],hIL1RAP kdis(1/s) [3],hIL1RAP kon(1/Ms) [3],Inhibition of viability [4],IC50 [5]
B1,0.001071 s⁻¹,379500 M⁻¹ s⁻¹,8.31 nM,0.000747 s⁻¹,350400 M⁻¹ s⁻¹,inhibition of viability of patient-derived AML samples,1.96 nM
B2,0.000954 s⁻¹,221100 M⁻¹ s⁻¹,4.81 nM,0.00037 s⁻¹,227800 M⁻¹ s⁻¹,–,1.73 nM
B3,0.000563 s⁻¹,267900 M⁻¹ s⁻¹,2.72 nM,0.000491 s⁻¹,294400 M⁻¹ s⁻¹,inhibition of viability of patient-derived AML samples,0.446 nM
B4,0.000297 s⁻¹,142000 M⁻¹ s⁻¹,6.55 nM,0.000337 s⁻¹,154500 M⁻¹ s⁻¹,–,1.77 nM
B5,0.000283 s⁻¹,376800 M⁻¹ s⁻¹,6.62 nM,0.000234 s⁻¹,392100 M⁻¹ s⁻¹,–,3.19 nM
B6,0.000459 s⁻¹,325600 M⁻¹ s⁻¹,13 nM,0.000301 s⁻¹,343500 M⁻¹ s⁻¹,–,2.5 nM
B7,0.00065 s⁻¹,329600 M⁻¹ s⁻¹,8.75 nM,0.000361 s⁻¹,336100 M⁻¹ s⁻¹,–,1.85 nM
